The values that follow are results of earlier work, collected in article PMC8314067.

Read-outs that look alike come from different tables or passages of the source.

Series [1] concerns the target type II receptor complex (IL-4Rα/IL-13Rα1) (Homo sapiens) (UniProt P24394).
The target is the same in series [2]. This is another data set of the same source.
For series [3], the target named is type I receptor complex (IL-4Rα/γc) (Homo sapiens) (UniProt P24394).

In general, Kd refers to the constant that tells how readily two partners part at equilibrium. For the substance IL-13 (from UniProt P35225), the Kd in series [1] was 20 nM. Regarding IL-4 (from UniProt P05112), the Kd was 487 nM in series [2] and 559 nM in series [3].
